Laboratory results taken from patent US20250205337A1, “COMPOSITIONS AND METHODS FOR ACTIVATING IMMUNE CELLS” (MDX Management LLC, priority 2022, published 2025).
Entries after “also recorded” stand apart in the source; their conditions may differ.

Columns and labels:
Assay type in all cases: cell-based, human
[1] = test system: monocytes from cancer patients (cMo); test: cMo survival in vitro (STAT3 activators, inhibitors, M-CSF/GM-CSF, KX1); settings: for effect of inhibitor on KX1-supported cMo survival: cMo in KX1; for cMo survival (and differentiation) on supplementation: IL-10-depleted KX1 / in place of IL-10
Description: After two days, the T cell culture medium was used to treat cMo.
IL-10/IL-10R signaling activates the downstream STAT3 signaling pathway.
(§1) The mechanisms by which KX1 could promote cMo survival was further studied.

[2] = test system: monocytes from healthy donors (Mo); test: Response of monocytes from healthy donors (Mo) to M-CSF and GM-CSF
Description: Similarly, cMo poorly respond to GM-CSF alone or GM-CSF plus IL-4 that drives DC differentiation (data not shown). […] Parallel experiments testing the same M-CSF and GM-CSF reagents successfully differentiated Mo from healthy donors with >90% survival rates.
(§2) Examination of Akt and Erk1/2, as well as other signaling molecules, detected similar total levels in Mo versus cMo (FIG. 2C), ruling out the absence of protein phosphorylation due to reduction of protein translation.

[3] = test system: monocytes from cancer patients (cMo); test: Cytokine depletion assays of Karnelian X1 (cMo survival/adhesion and differentiation); settings: for role of the cytokine in Karnelian X1 for cMo survival and differentiation: depletion assays
Procedure: The differentiation of cMo from >100 cancer patient samples was tested.
The role of IL-10 and other key factors in KX1 was further studied.

[4] = test system: Akt, Erk1/2, STAT3, caspase-9 and caspase-3 in cMo; test: Survival and apoptosis signal transduction in cMo (Western blotting)
Description: as §2, §1
The role of IL-10 and other key factors in KX1 was further studied. As shown in FIG. 9A-9D, depletion of IL-10 diminished (>70%) KX1-mediated activation of Akt, Erk 1/2, and STAT3, and this global reduction of survival signal was associated with an increase in cell death signal through activation of caspase-9 and caspase-3.
As shown in FIG. 10A-10C, triple cytokine combination (C-combo V1) was capable of achieving >80% cMo differentiation, although each component alone was not sufficient.

[5] = in vitro, at optimal concentration
[6] = promoting cMo survival in vitro, small molecule STAT3 activators
[7] = promoting cMo survival in vitro
[8] = cytokine depleted from Karnelian X1

## Cc1[nH]nc2ccc(-c3cncc(OC[C@@H](N)Cc4ccccc4)c3)cc12 [A-674563, reference compound]
[1]
  effect of inhibitor on KX1-supported cMo survival: abrogated KX1 effectiveness

## COc1ccc(S(=O)(=O)Nc2cc(-c3c(O)ccc4ccccc34)c(O)c3ccccc23)cc1 [C188-9, reference compound]
[1]
  effect of inhibitor on KX1-supported cMo survival: dose-dependently nullified the effect of KX1

## NC1(Cc2ccc(Cl)cc2)CCN(c2ncnc3[nH]ccc23)CC1 [CCT128930, reference compound]
[1]
  effect of inhibitor on KX1-supported cMo survival: abrogated KX1 effectiveness

## COc1c(O)cc2oc3cc(O)c(CC=C(C)C)c(O)c3c(=O)c2c1CCC(C)(C)O [Garcinone D, reference compound]
[1]
  cMo survival (and differentiation) on supplementation: restored cMo survival
[1]; [5]
  Effectiveness (cMo survival rate): 90-100%
[1]; [6]
  Optimal concentration (ng/mL): 500 to 2000 ng/mL

## CC(=O)c1cc2c(o1)C(=O)c1ccccc1C2=O [Napabucasin, reference compound]
[1]
  effect of inhibitor on KX1-supported cMo survival: dose-dependently nullified the effect of KX1

## N#CC(=C(/N)Sc1ccccc1N)/C(C#N)=C(\N)Sc1ccccc1N [U0126, reference compound]
[1]
  effect of inhibitor on KX1-supported cMo survival: abrogated KX1 effectiveness

## Colivelin TFA [reference compound]
[1]
  cMo survival (and differentiation) on supplementation: restored cMo survival
[1]; [5]
  Effectiveness (cMo survival rate): 90-100%
[1]; [6]
  Optimal concentration (ng/mL): 10000 to 100000 ng/mL

## GM-CSF: Granulocyte-macrophage colony-stimulating factor
[1]; over twenty cMo samples, various solid tumors
  cMo responsiveness to differentiation factor: non- or poor responsiveness
[2]
  survival signal transduction in Mo (activation of Akt and Erk1/2): induced strong survival signal transduction in Mo cells
[3]
  role of the cytokine in Karnelian X1 for cMo survival and differentiation: variable
[4]
  activation of Akt, Erk1/2, STAT3 in cMo: failed to activate Akt and Erk1/2
  caspase-9 and caspase-3 cleavage in cMo: increased caspase-9 and caspase-3 cleavage; also recorded: did induce apoptotic signals via cleavage of caspase-9 and caspase-3

## IL-6: Interleukin 6, IL-6 family cytokine
[1]
  cMo survival (and differentiation) on supplementation: only moderately supported cMo survival and differentiation
[1]; [5]
  Effectiveness (cMo survival rate): 20-30%
[1]; [7]
  Optimal concentration: 20 to 100 ng/mL
[3]
  role of the cytokine in Karnelian X1 for cMo survival and differentiation: variable
[4]
  activation of Akt, Erk1/2, STAT3 in cMo: weaker ability to activate Akt in cMo

## IL-17: cytokine in Karnelian X1
[3]
  role of the cytokine in Karnelian X1 for cMo survival and differentiation: dispensable

## JAK inhibitor I [reference compound]
[1]
  effect of inhibitor on KX1-supported cMo survival: dose-dependently nullified the effect of KX1

## TNFα
[3]; [8]
  reduction of cMo adhesion and survival on depletion of the cytokine from Karnelian X1: ~20%

B1: G-CSF: growth factor tested in IL-10-depleted KX1 (protein, UniProt P09919 31-207, looked up)
Granulocyte …: TPLGPASSLPQSFLLKCLEQVRKIQGDGAALQEKLVSECATYKLCHPEELVLLGHSLGIPWAPLSSCPSQALQLAGCLSQLHSGLFLYQGLLQALEGISPELGPTLDTLQLDVADFATTIWQQMEELGMAPALQPTQGAMPAFASAFQRRAGGVLVASHLQSFLEVSYRVLRHLAQP
[1]; in IL-10-depleted KX1
  Effectiveness (cMo survival rate): 30-40% in
  Optimal concentration (ng/mL): >1 ng/mL (1-200)

B2: IL-24: IL-10 family cytokine, STAT3 activator (protein, UniProt Q13007 52-206, looked up)
Interleukin-24: QEFHFGPCQVKGVVPQKLWEAFWAVKDTMQAQDNITSARLLQQEVLQNVSDAESCYLVHTLLEFYLKTVFKNYHNRTVEVRTLKSFSTLANNFVLIVSQLQPSQENEMFSIRDSAHRRFLLFRRAFKQLDVEAALTKALGEVDILLTWMQKFYKL
[1]
  cMo survival (and differentiation) on supplementation: could replace IL-10 to support cMo survival and differentiation
[1]; [5]
  Effectiveness (cMo survival rate): 70-85%
[1]; [7]
  Optimal concentration (ng/mL): >20 ng/mL (20-100)

B3: IL-4: Interleukin 4, cytokine in Karnelian X1 (protein, UniProt P05112 25-153, looked up)
Interleukin-4: HKCDITLQEIIKTLNSLTEQKTLCTELTVTDIFAASKNTTEKETFCRAATVLRQFYSHHEKDTRCLGATAQQFHRHKQLIRFLKRLDRNLWGLAGLNSCPVKEANQSTLENFLERLKTIMREKYSKCSS
[3]; [8]
  reduction of cMo differentiation to APCs: ~50%
[3]
  role of the cytokine in Karnelian X1 for cMo survival and differentiation: did not affect cMo survival/adhesion

B4: IL-19: IL-10 family cytokine, STAT3 activator (protein, UniProt Q9UHD0 25-177, looked up)
Interleukin-19: LRRCLISTDMHHIEESFQEIKRAIQAKDTFPNVTILSTLETLQIIKPLDVCCVTKNLLAFYVDRVFKDHQEPNPKILRKISSIANSFLYMQKTLRQCQEQRQCHCRQEATNATRVIHDNYDQLEVHAAAIKSLGELDVFLAWINKNHEVMFSA
[1]
  cMo survival (and differentiation) on supplementation: could replace IL-10 to support cMo survival and differentiation
[1]; [5]
  Effectiveness (cMo survival rate): 70-85%
[1]; [7]
  Optimal concentration (ng/mL): >10 ng/mL (10-100)

B5: IL-22: IL-10 family cytokine, STAT3 activator (protein, UniProt Q9GZX6 34-179, looked up)
Interleukin-22: APISSHCRLDKSNFQQPYITNRTFMLAKEASLADNNTDVRLIGEKLFHGVSMSERCYLMKQVLNFTLEEVLFPQSDRFQPYMQEVVPFLARLSNRLSTCHIEGDDLHIQRNVQKLKDTVKKLGESGEIKAIGELDLLFMSLRNACI
[1]
  cMo survival (and differentiation) on supplementation: could replace IL-10 to support cMo survival and differentiation
[1]; [5]
  Effectiveness (cMo survival rate): 80-100%
[1]; [7]
  Optimal concentration (ng/mL): >10 ng/mL (10-100)

B6: IL-11: IL-6 family member cytokine (protein, UniProt P20809 22-199, looked up)
Interleukin-11: PGPPPGPPRVSPDPRAELDSTVLLTRSLLADTRQLAAQLRDKFPADGDHNLDSLPTLAMSAGALGALQLPGVLTRLRADLLSYLRHVQWLRRAGGSSLKTLEPELGTLQARLDRLLRRLQLLMSRLALPQPPPDPPAPPLAPPSSAWGGIRAAHAILGGLHLTLDWAVRGLLLLKTRL
[1]
  cMo survival (and differentiation) on supplementation: only moderately supported cMo survival and differentiation

B7: IFNγ: Interferon gamma, cytokine in Karnelian X1 (protein, UniProt P01579 24-161, looked up)
Interferon gamma: QDPYVKEAENLKKYFNAGHSDVADNGTLFLGILKNWKEESDRKIMQSQIVSFYFKLFKNFKDDQSIQKSVETIKEDMNVKFFNSNKKKRDDFEKLTNYSVTDLNVQRKAIHELIQVMAELSPAAKTGKRKRSQMLFRG
[3]; [8]
  reduction of cMo adhesion and survival on depletion of the cytokine from Karnelian X1: ~20%

B8: IL-23: IL-12 family cytokine, STAT3 activator (protein, UniProt Q9NPF7 20-189; P29460 23-328, looked up)
Interleukin-23 subunit alpha: RAVPGGSSPAWTQCQQLSQKLCTLAWSAHPLVGHMDLREEGDEETTNDVPHIQCGDGCDPQGLRDNSQFCLQRIHQGLIFYEKLLGSDIFTGEPSLLPDSPVGQLHASLLGLSQLLQPEGHHWETQQIPSLSPSQPWQRLLLRFKILRSLQAFVAVAARVFAHGAATLSP
Interleukin-12 subunit beta: IWELKKDVYVVELDWYPDAPGEMVVLTCDTPEEDGITWTLDQSSEVLGSGKTLTIQVKEFGDAGQYTCHKGGEVLSHSLLLLHKKEDGIWSTDILKDQKEPKNKTFLRCEAKNYSGRFTCWWLTTISTDLTFSVKSSRGSSDPQGVTCGAATLSAERVRGDNKEYEYSVECQEDSACPAAEESLPIEVMVDAVHKLKYENYTSSFFIRDIIKPDPPKNLQLKPLKNSRQVEVSWEYPDTWSTPHSYFSLTFCVQVQGKSKREKKDRVFTDKTSATVICRKNASISVRAQDRYYSSSWSEWASVPCS
[1]
  cMo survival (and differentiation) on supplementation: could replace IL-10 to support cMo survival and differentiation
[1]; [5]
  Effectiveness (cMo survival rate): 50-70%
[1]; [7]
  Optimal concentration (ng/mL): >10 ng/mL (10-100)

B9: IL-10: Interleukin 10, cytokine; recombinant form added back; IL-10 family STAT3 activator (protein, UniProt P22301 19-178, looked up)
Interleukin-10: SPGQGTQSENSCTHFPGNLPNMLRDLRDAFSRVKTFFQMKDQLDNLLLKESLLEDFKGYLGCQALSEMIQFYLEEVMPQAENQDPDIKAHVNSLGENLKTLRLRLRRCHRFLPCENKSKAVEQVKNAFNKLQEKGIYKAMSEFDIFINYIEAYMTMKIRN
[1]
  cMo survival (and differentiation) on supplementation: dose-dependently restored its survival capacity
[1]; [5]
  Effectiveness (cMo survival rate): 90-100%
[1]; [7]
  Optimal concentration (ng/mL): >10 ng/mL (10-100)
[3]; IL-10 depleted from Karnelian X1
  remnant cells that survived IL-10 depletion: 5-20%
[3]; [8]
  reduction of cMo adhesion and survival on depletion of the cytokine from Karnelian X1: 60-80%
[3]
  role of the cytokine in Karnelian X1 for cMo survival and differentiation: only weakly influence cMo differentiation to APCs
[4]; cytokine depleted from KX1
  diminution of KX1-mediated activation of Akt, Erk 1/2 and STAT3: > 70%
